Results published in the RNAGym collection of RNA variant scans (doi:10.1093/molbev/msab373).

B1: Azoarcus group I ribozyme (parent)
chain: GUGCCUUGCGCCGGGAAACCACGCAAGGGAUGGUGUCAAAUUCGGCGAAACCUAAGCGCCCGCCCGGGCGUAUGGCAACGCCGAGCCAAGCUUCGGCGCCUGCGCCGAUGAAGGUGUAGAGACUAGACGGCACCCACCUAAGGCAAACGCUAUGGUGAAGGCAUAGUCCAGGGAGUGGCGAAAGUCACACAAACCGG

Variants of: B1
Test: reverse-splicing fitness (ratio to wild type); higher = more active; in vitro selection; Mg2+ level not given
How it was run: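 An in vitro group I ribozyme library with randomized positions was T7-transcribed and gel-purified. In triplicate, 10 pmol RNA in EPPS pH 7.5 was reacted with 50 pmoles of a 30-nt RNA substrate for 1 h at 37 °C across several added MgCl2 levels (1–48 mM), then stopped with EDTA. Products were reverse transcribed from a substrate-complementary primer, PCR-amplified and sequenced (HiSeq 4000). Fitness is a variant's read proportion after selection over that before, normalised to wild type.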

Compared with C82G A111C A120G A145C C169A U176A, C82G A111C A120G A145C C169A U176G is lower in reverse-splicing fitness: 0.0138 for the first, 0.00477 for the second.

First: C82G A111C A120G A145C C169A U176C
Second: C82G A111C A120G A145G C150G C169A U176C
The reverse-splicing fitness of the first is lower: 0.00939 for the first, 0.0135 for the second.

Going from C82G A111C A120G A145G C150G C169A U176G to C82G A111C A120G A145G C150G C169A U176A, the reverse-splicing fitness rises from 0.00843 to 0.0144.

Going from C82G A111C A120G C150G C169A to C82G A111C A120G C150G C169G, the reverse-splicing fitness falls from 0.00888 to 0.00781.

Going from C82G A111C A120G C150G C169U to C82G A111C A120G A145C C169U U176A, the reverse-splicing fitness rises from 0.00835 to 0.0164.

Compared with C82G A111C A120G A145C C169U U176G, C82G A111C A120G A145C C169U U176C is higher in reverse-splicing fitness: 0.00406 for the first, 0.0154 for the second.

First: C82G A111C A120G C150A U176C
Second: C82G A111C A120G C150A U176A
The reverse-splicing fitness of the first is higher: 0.0193 for the first, 0.014 for the second.

Compared with C82G A111C A120G C150A U176G, C82G A111C A120G A145U C150A C169G is lower in reverse-splicing fitness: 0.0081 for the first, 0.00764 for the second.

First: C82G A111C A120G A145U C150A C169U
Second: C82G A111C A120G A145U C150A C169A
The reverse-splicing fitness of the first is lower: 0.00666 for the first, 0.00884 for the second.

Going from C82G A111C A120G A145U C150G U176A to C82G A111C A120G A145U C150G U176C, the reverse-splicing fitness rises from 0.00814 to 0.015.

Going from C82G A111C A120G A145U C150G U176G to C82G A111C A120G A145G C150G C169G U176G, the reverse-splicing fitness rises from 0.00375 to 0.00591.

Compared with C82G A111C A120G A145G C150G C169G U176A, C82G A111C A120G A145G C150G C169G U176C is higher in reverse-splicing fitness: 0.0101 for the first, 0.0123 for the second.

First: C82G A111C A120G A145G C169U U176G
Second: C82G A111C A120G A145G C169U U176A
The reverse-splicing fitness of the first is lower: 0.00423 for the first, 0.0161 for the second.

First: C82G A111C A120G A145G C169U U176C
Second: C82G A111C A120G C150A C169U U176A
The reverse-splicing fitness of the first is lower: 0.0145 for the first, 0.022 for the second.

First: C82G A111C A120G C150A C169U U176C
Second: C82G A111C A120G C150A C169U U176G
The reverse-splicing fitness of the first is higher: 0.0171 for the first, 0.00512 for the second.

First: C82G A111C A120U A145C C150U C169A U176C
Second: C82G A111C A120U A145C C150U C169A U176G
The reverse-splicing fitness of the first is lower: 0.0022 for the first, 0.0025 for the second.

First: C82G A111C A120U A145C C150U C169A U176A
Second: C82G A111C A120G C150G U176A
The reverse-splicing fitness of the first is lower: 0.00238 for the first, 0.00843 for the second.

Going from C82G A111C A120G C150G U176C to C82G A111C A120G C150G U176G, the reverse-splicing fitness falls from 0.0153 to 0.00284.

Going from C82G A111C A120U A145G C150U C169G U176A to C82G A111C A120U A145G C150U C169G U176G, the reverse-splicing fitness falls from 0.00573 to 0.00259.

Compared with C82G A111C A120U A145G C150U C169G U176C, C82G A111C A120G A145U C169U U176C is higher in reverse-splicing fitness: 0.00437 for the first, 0.014 for the second.

Going from C82G A111C A120G A145U C169U U176A to C82G A111C A120G A145U C169U U176G, the reverse-splicing fitness falls from 0.0144 to 0.00395.

Going from C82G A111C A120G A145U C150A C169G U176G to C82G A111C A120G A145U C150A C169G U176A, the reverse-splicing fitness rises from 0.00522 to 0.0126.

First: C82G A111C A120G A145U C150A C169G U176C
Second: C82G A111C A120G A145U C150A U176G
The reverse-splicing fitness of the first is higher: 0.0153 for the first, 0.00582 for the second.

Going from C82G A111C A120G A145U C150A U176A to C82G A111C A120G A145U C150A U176C, the reverse-splicing fitness rises from 0.0121 to 0.0172.

Going from C82G A111C A120G A145G C150A C169A U176A to C82G A111C A120G A145G C150A C169A U176C, the reverse-splicing fitness rises from 0.0181 to 0.0198.

First: C82G A111C A120G A145G C150A C169A U176G
Second: C82G A111C A120G A145G C150U C169U U176C
The reverse-splicing fitness of the first is lower: 0.00723 for the first, 0.0145 for the second.

First: C82G A111C A120G A145G C150U C169U U176A
Second: C82G A111C A120G A145G C150U C169U U176G
The reverse-splicing fitness of the first is higher: 0.0141 for the first, 0.00501 for the second.

Compared with C82G A111C A120G C150A C169U, C82G A111C A120G C150A C169G is higher in reverse-splicing fitness: 0.00859 for the first, 0.00935 for the second.

Compared with C82G A111C A120G C150A C169A, C82G A111C A120G A145C C150U C169G U176G is lower in reverse-splicing fitness: 0.0116 for the first, 0.00541 for the second.

Going from C82G A111C A120G A145C C150U C169G U176C to C82G A111C A120G A145C C150U C169G U176A, the reverse-splicing fitness rises from 0.0133 to 0.0216.

First: C82G A111C A120G A145G C150G C169A
Second: C82G A111C A120G A145G C150G C169U
The reverse-splicing fitness of the first is higher: 0.009 for the first, 0.00859 for the second.

First: C82G A111C A120G A145G C150G C169G
Second: C82G A111C A120G A145G C150U
The reverse-splicing fitness of the first is lower: 0.00765 for the first, 0.0132 for the second.

Going from C82G A111C A120G A145G C150G to C82G A111C A120G A145G C150A, the reverse-splicing fitness rises from 0.00751 to 0.00945.

First: C82G A111C A120G A145U C169G U176C
Second: C82G A111C A120G A145U C169G U176G
The reverse-splicing fitness of the first is higher: 0.0132 for the first, 0.00458 for the second.

Compared with C82G A111C A120G A145U C169G U176A, C82G A111C A120U A145C C169U U176G is lower in reverse-splicing fitness: 0.0117 for the first, 0.00214 for the second.

First: C82G A111C A120U A145C C169U U176A
Second: C82G A111C A120U A145C C169U U176C
The reverse-splicing fitness of the first is higher: 0.00293 for the first, 0.00289 for the second.

Going from C82G A111C A120U A145G C150G C169A to C82G A111C A120U A145G C150G C169U, the reverse-splicing fitness falls from 0.00854 to 0.00758.

First: C82G A111C A120U A145G C150G C169G
Second: C82G A111C A120G A145C C150U
The reverse-splicing fitness of the first is lower: 0.00703 for the first, 0.00925 for the second.

Compared with C82G A111C A120U A145G C150A C169G U176G, C82G A111C A120U A145G C150A C169G U176C is higher in reverse-splicing fitness: 0.00277 for the first, 0.00534 for the second.

Compared with C82G A111C A120U A145G C150A C169G U176A, C82G A111C A120G A145U C150A is higher in reverse-splicing fitness: 0.00649 for the first, 0.00783 for the second.

Compared with C82G A111C A120G A145U C150U, C82G A111C A120G A145U C150G is lower in reverse-splicing fitness: 0.0124 for the first, 0.00698 for the second.

C82G A111C A120G A145U C150G C169G showed a reverse-splicing fitness of 0.00781.
